Positions count from the first letter of the chain named. Numbers in names are those of the source.
How the values were obtained:
[1] = target: Fc-fusion protein receptor ectodomain of BMPR-IA; assay: SPR (Biacore T100), receptor ectodomain-Fc on protein G chip, kinetic 1:1 fit; measurement 1
[2] = target: Fc-fusion protein receptor ectodomain of BMPR-IB; assay: as above
[3] = target: Fc-fusion protein receptor ectodomain of BMPR-IA; assay: SPR (Biacore T100), receptor ectodomain-Fc on protein G chip, kinetic 1:1 fit; measurement 2
[4] = target: Fc-fusion protein receptor ectodomain of BMPR-IB; assay: as above
[5] = target: Fc-fusion protein receptor ectodomain of BMPR-IB; assay: ratio of Biacore KDs, BMPR-IA as reference; measurement 2
[6] = target: Fc-fusion protein receptor ectodomain of BMPR-IB; assay: ratio of Biacore KDs, BMPR-IA as reference; measurement 1
[7] = target: Fc-fusion protein receptor ectodomain of BMPR-IB; assay: ratio KD(IA):KD(IB) from Biacore, relative to wild type
[8] = target: Fc-fusion protein receptor ectodomain of BMPR-II; assay: SPR (Biacore T100), receptor ectodomain-Fc on protein G chip, equilibrium binding (KD eq)

B1: recombinant human GDF-5 wild type (ligand)
chain: APLATRQGKRPSKNLKARCSRKALHVNFKDMGWDDWIIAPLEYEAFHCEGLCEFPLRSHLEPTNHAVIQTLMNSMDPESTPPTACVPTRLSPISILFIDSANNVVYKQYEDMVVESCGCR
With B1 the Kd [1] was 1 nM, the Kd [2] was 0.008 nM and the Kd [3] was 1.1 nM. For the same binder, the Kd [4] was 0.027 nM, the fold higher IB affinity over IA, KD(IA): KD(IB) [5] was 40 fold and the fold higher IB affinity over IA, KD(IA): KD(IB) [6] was 122 fold. It also gave a fold higher IB affinity over IA compared to WT [7] of 1 fold and a Kd [8] of 32 nM.

B2: human GDF-5 mutant S439K (ligand)
chain: B1 chain with S58K, A84C
In the case of B2, the Kd [1] is reported as 43.4 nM, the Kd [2] is reported as 0.01 nM and the fold higher IB affinity over IA, KD(IA): KD(IB) [6] is reported as 2400 fold. It also gave a fold higher IB affinity over IA compared to WT [7] of 19.7 fold and a Kd [8] of 10 nM.

B3: human GDF-5 mutant W417F (ligand)
chain: B1 chain with W36F, A84C
B3 was tested, and the Kd [3] was 27 nM, the Kd [4] was 0.046 nM and the fold higher IB affinity over IA, KD(IA): KD(IB) [5] was 587 fold. It also gave a fold higher IB affinity over IA compared to WT [7] of 14.7 fold.

B4: recombinant human GDF-5 mutant W414R (ligand)
chain: B1 chain with W33R, A84C
B4 gave a Kd [1] of 20.3 nM, a Kd [2] of 0.03 nM and a fold higher IB affinity over IA, KD(IA): KD(IB) [6] of 668 fold. For the same binder, the fold higher IB affinity over IA compared to WT [7] was 5.5 fold.

B5: human GDF-5 mutant W417R (ligand)
chain: B1 chain with W36R, A84C
With B5 the Kd [3] was 98 nM, the Kd [4] was 0.037 nM and the fold higher IB affinity over IA, KD(IA): KD(IB) [5] was 2650 fold. It also gave a fold higher IB affinity over IA compared to WT [7] of 56.2 fold.

B6: recombinant human GDF-5 mutant R399E (ligand)
chain: B1 chain with R18E, A84C
In the case of B6, the Kd [1] is reported as 22.5 nM, the Kd [2] is reported as 0.172 nM and the fold higher IB affinity over IA, KD(IA): KD(IB) [6] is reported as 130 fold. The fold higher IB affinity over IA compared to WT [7] was 1.1 fold and the Kd [8] was 32 nM.

B7: recombinant human GDF-5 mutant S439E (ligand)
chain: B1 chain with S58E, A84C
With B7 the Kd [3] was 25 nM, the Kd [4] was 0.043 nM and the fold higher IB affinity over IA, KD(IA): KD(IB) [5] was 581 fold. The fold higher IB affinity over IA compared to WT [7] was 14.5 fold.

B8: human GDF-5 mutant R438K (ligand)
chain: B1 chain with R57K, A84C
In the case of B8, the Kd [1] is reported as 32.5 nM, the Kd [2] is reported as 0.045 nM and the fold higher IB affinity over IA, KD(IA): KD(IB) [6] is reported as 717 fold. The fold higher IB affinity over IA compared to WT [7] was 5.9 fold and the Kd [8] was 32 nM.

B9: recombinant human GDF-5 mutant R399M (ligand)
chain: B1 chain with R18M, A84C
With B9 the Kd [1] was 0.54 nM, the Kd [2] was 0.0025 nM and the fold higher IB affinity over IA, KD(IA): KD(IB) [6] was 216 fold. The fold higher IB affinity over IA compared to WT [7] was 1.8 fold and the Kd [8] was 32 nM.

B10: recombinant human GDF-5 mutant I449V (ligand)
chain: B1 chain with I68V, A84C
In the case of B10, the Kd [3] is reported as 5.7 nM, the Kd [4] is reported as 0.026 nM and the fold higher IB affinity over IA, KD(IA): KD(IB) [5] is reported as 219 fold. For the same binder, the fold higher IB affinity over IA compared to WT [7] was 5.5 fold.

B11: human GDF-5 mutant M412V (ligand)
chain: B1 chain with M31V, A84C
In the case of B11, the Kd [3] is reported as 13 nM, the Kd [4] is reported as 0.039 nM and the fold higher IB affinity over IA, KD(IA): KD(IB) [5] is reported as 333 fold. It also gave a fold higher IB affinity over IA compared to WT [7] of 8.3 fold.
